Test results: FireProtDB (doi:10.1021/bi012042l)

B1: Fatty acid-binding protein, intestinal, P02693 (parent)
chain: MAFDGTWKVDRNENYEKFMEKMGINVVKRKLGAHDNLKLTITQEGNKFTVKESSNFRNIDVVFELGVDFAYSLADGTELTGTWTMEGNKLVGKFKRVDNGKELIAVREISGNELIQTYTYEGVEAKRIFKKE

Variants of: B1
Details: Rattus norvegicus; pH 7.3; 20 °C; GdnHCl; Fluorescence; potassium phosphate 20 mM; structure 1IFB; whole UniProt chain shown

Variant	denaturant midpoint (higher = more stable) [M]	unfolding free energy [kcal/mol]
G100P	0.7	3.5
G111P	1	5
G45P	0.8	3.1
G66P	0.9	2.5
G122P	0.6	1.2
